Data from US4546077A, “Leucine dehydrogenase and a process for production thereof” (Unitika Ltd., priority 1982, dated 1985).

How the values were obtained:
[1] = substrate: NC(=O)c1ccc[n+]([C@@H]2O[C@H](COP(=O)([O-])OP(=O)(O)OC[C@H]3O[C@@H](n4cnc5c(N)ncnc54)[C@H](O)[C@@H]3O)[C@@H](O)[C@H]2O)c1; assay: Michaelis constants of leucine dehydrogenase; format: biochemical; conditions: other: purified leucine dehydrogenase from Bacillus stearothermophilus; pH 11.0; 55.0 °C
Method: (§1) Next, physico-chemical properties of the thus obtained leucine dehydrogenase of the present invention are shown below, wherein the leucine dehydrogenase was obtained from Bacillus stearothermophilus.
(§2) A solution mixture containing 1.25 mM NAD and 10 mM L-leucine in a […] glycine-KCl-KOH buffer solution having pH 11 was prepared. A suitable amount of a leucine dehydrogenase was added to the solution mixture and the increment of a reduced type NAD per unit time at 55° C. was measured as an increment of the absorbancy at 340 nm. The amount of the enzyme which made it possible to increase the absorbancy of 1μ mole of NADH at 340 nm per minute was set at 1 unit.

[2] = substrate: CC(C)C[C@H](N)C(=O)O; assay: Michaelis constants of leucine dehydrogenase; format: biochemical; conditions: other: purified leucine dehydrogenase from Bacillus stearothermophilus; pH 11.0; 55.0 °C
Method: as §1, §2

B1: leucine dehydrogenase obtained from Bacillus stearothermophilus (Geobacillus stearothermophilus) (protein)
chain: MELFKYMETYDYEQVLFCQDKESGLKAIIAIHDTTLGPALGGTRMWMYNSEEEALEDALRLARGMTYKNAAAGLNLGGGKTVIIGDPRKDKNEAMFRAFGRFIQGLNGRYITAEDVGTTVADMDIIYQETDYVTGISPEFGSSGNPSPATAYGVYRGMKAAAKEAFGSDSLEGKVVAVQGVGNVAYHLCRHLHEEGAKLIVTDINKEVVARAVEEFGAKAVDPNDIYGVECDIFAPCALGGIINDQTIPQLKAKVIAGSADNQLKEPRHGDIIHEMGIVYAPDYVINAGGVINVADELYGYNRERAMKKIEQIYDNIEKVFAIAKRDNIPTYVAADRMAEERIETMRKARSPFLQNGHHILSRRRAR
notes: the leucine dehydrogenase was obtained from Bacillus stearothermophilus; endogenous in cells; host or cells: Bacillus stearothermophilus (enzyme isolated and purified from the cultured bacteria)
- Km [1]: 400 µM
- Km [2]: 1500 µM
